This series is described as follows: soluble on expression in E. coli; label from the status in PepcDB or PDB records.
For the sequence “MAHHHHHHMSELQSLTPETAFTVASTFLAYYYSEFVKLNELARMSDLYDERSYMTLVDFRDEVPVVAHGRNAVANLLAKLDSTLGQRKVEIITVDTVALPHNCVQVICQGVMYLREYRRVFLHVFMLEPTAYRTKTYHIASDYLRFVDSEKEVIPEGAVVIAADQVAAYLEESRRRVEEEQRRQLLEFQQRIRLQQQQLQMQQQQQQQKAAAMNMPAPASRQSRPAASASRDGGRPARGERKPREPRENRGERKPREPREPRGEHKPREGEEKVAAASPSRLAGEGKKGGERGNRKPAAAANAAKGTADTAAATPAPAAVRKPRRESGPTAAIIMLRVPKKIKLSDIKAELVSQGFSELKDLFWCGRDSAHAVVKFSTVEKATEAFETKPFKIQGESLNLDYYHE”, the “soluble on expression in E. coli” value is on record as “soluble”.
Turning to “MNRREVRCAFSASKAARAQLLLRGKVRLEPLPTRPRTVLGLDASYSAKDGVGVGAAVLISLETLEPVDCRVYISRVCIPYIPGLLAFRELAVMAPAAAALSAEADVVMVDGHGIAHPRRFGIASHVGVILERPSIGVAKKKLVGTLVEGPGGMYVVQDGERLAIVLGTRPREVYVSPGHRITLEEAASIARATIRPGGWMPEPTRLADVISKALKTIIGGQSLINSALASLCRVKLGPRLEELERPLRRAGLEVELEHHHHHH”, the “soluble on expression in E. coli” value is recorded as “not soluble”.
For the sequence “MANSAGSMAPKVFYISDGTAITAEVFGHAVLSQFPLEFESLTIPFVETLAKAENVKRQINDCFITTGERPLVFHSIVKPEIRDIIYSSEGLDYDFLNTFVAPLEQHLGVSASPVLHRTHGKANQGYEARIDAINFAMDNDDGQTMKHMDQADLILLGVSRCGKTPSSLYLSMQFGIKAANYPFTEDDMDNLKLPEALKRNKKKLFGLTIDPVRLHEIRQSRMENSRYSSLKQCRLEVKEVEMMFKRERIPYIDTTNHSVEEIATKILDVTGLERHMFLEHHHHHH”, the “soluble on expression in E. coli” value is “not soluble”.
The entry for “MKVSTKDKIIESAVMLFNQKGFSGTSVREIAKSADVNVAHISYYFKGKGGLMEHLVSEFYEGYSKTLETAASNISTQSTQEQLLQLVFDILSYQHNHRQLTRFVYREVTIDSTLIREIMSTYLMKEKYIFQLIIEEGEKQREYLTLPLPHFILQLKSLLMMPYLQPQYISEVLYMQPHEPYFYKMYFEEIKIWIRSVFRTGDVALTN” is “not soluble”; for “MGSDKIHHHHHHMTVVRQTAAEQATATGRRRASFHTLTVAEVRRLTDDAIEVTFGVPAELAGQYDYLPGQYVALRTTMPDENGQPHEVRRSYSICAEPRSFADGSSEIRVAIKKDLGGLFSTWANAELKPGDQLDVMSPMGAFVSKHGRDGKAVEQNVMNSMNHPEDLVGEPGSFVAIAAGSGITPVIAIARTLLAANPETRFDLIYANKAAMDVMFLEELADLKDKYPSRLALHHVLSREQRIAPLLSGRIDAEKLQALLGTAIHADDVDEWFLCGPFELVQLCRDTLAARGVQPEHVRFELFTSGKPDRPEGNIGRPVIADESKDTYKITFKLDGLEGKVESPTHARESLLNAALRVRPDVPFACAGGVCGTCRAKVVTGAVTMDENYALEQDELDKGYVLTCQSHPTTPEVTVDFDV” it is “not soluble”; for “MEKYSQVIFDKNTVEFVTVAAEFCGFLERARDMKRYDFVDTALKILPLLYLKATLLPPCEPIGEDEPETFVTEEDYELIRRAIAGVLGAKDDYLEVFLPDMVYSDTPIKKCISEDLADIYQDLKDFISVFQLGLNETMNDSLVVCKEHFREFWGQRLVNTMRALHDVKYSPADDGEEEEMEDENSLLLEHHHHHH” it is “soluble”.
Take “MTVLVVRHGTAGSKAHFSGDDSKRPLDKRGRAQAEALVPQLLAFGATDVYAADRVRCHQTMEPLAAELNVTIHNEPTLTEESYANNPKRGRHRVLQIVEQVGTPVICTQGKVIPDLITWWCERDGVHPDKSRNRKGSTWVLSLSAGRLVTADHLEHHHHHH”: the “soluble on expression in E. coli” value was “not soluble”.
As to “MTDEIISYQKAKLAKNLAISTASKWLFVHSSTGGSATNLSIAQYATLINGIQSAIKCQVILTAGKGERERAVELAEKLTDQNVVIYDKNDGLADFTRSLACADLFIAGSTGPLHIAGGLNIPTVGFYPSRLSATPRRWRPINQVDKHLAFCPPSGKQCEMDLTLISIEQALTSVIPFIKKMWQLSLEHHHHHH”, the “soluble on expression in E. coli” value was “soluble”.
Turning to “MTTALKIDFISDVSCPWCVIGLRALDQALEALGDEVQAQIHFQPFELNPNMPAEGQDIKEHIAEKYGSTPEQIEAIHETIRERGAELGFTFGKGERRIYNTFDAHRLLHWAEQEGKQPALKQALFVAYFSELKDPSSHQTLADVAQKVGLDRLRAQAILDSDEFASEVREAEQLWTSRGITSVPTMVFNDQYAVSGGQPVEVFVSAIRQMLSESK”, the “soluble on expression in E. coli” value was “not soluble”.
The entry for “MAVLIETTLGDLIIDLFVKERPRCSLNFLKLCKKKYYNLNQFHSIERNYVAQTGDPTGTGKGGESVYSDMYGEQGRYFEREDLPKMRHTRMGIVSFVNNGDNMLGSQFFITLGENLDYLDDQHTIFGQVTEGLETLEKLNEQLADTNNRPFKDIRISHTIVLDDPFDEDARISFPPRSPSPTYEMLVKTDQIALDEKEDEDEGKTAEEIAEELQQREMAEQAQILEMVGDLKDADEVPPENVLFVCKLNPVTTDEDLEIIFSRFGKINNCEIVRDRRSGDSLQYAFIEFDNAKSCEQAFFKMDNVLIDDRRIHVDFSQSVSQNYKYKPKSQQQEAPKRRQSPQRRPEVKRSHQRSPSPRRRRSPSPKKDKKRDYRREPARRRRSSDNHRDRDRSYRDNNRDRRDNHRDSDRDRRRHDRSPDRRRDRR” is “not soluble”; for “MSEVLTRGFRFRPADEEVTDYLMRKTQSPEFSCFIKTIDLYDKDPWVLGHVRDPCYNHYEWYYFVKKNPLGNEYLDKPRLNGFEHPRLKWDVLKQIHDALSSGQNVPPSVFTYGFRFHPTDQELLSLYLTPKAHSPDFSCFIRERESYMPWSHGFLNMLDLLFTRTVNGTTL” it is “soluble”.
Turning to “GMYEEWKIVKREAPILGNDQLIENIWKMKREDSPYDIISLHKVNLIGGGNDAVLILPGTWSSGEQLVTISWNGVHYTIPDYRKSIVLYLARNGFNVYTIDYRTHYVPPFLKDRQLSFTANWGWSTWISDIKEVVSFIKRDSGQERIYLAGESFGGIAALNYSSLYWKNDIKGLILLDGGPTKHGIRPKFYTPEVNSIEEMEAKGIYVIPSRGGPNNPIWSYALANPDMPSPDPKYKSISDFLMDSLYVTGSANPYDYPYSKKEDMFPILASFDPYWPYRLSLERDLKFDYEGILVPTIAFVSERFGIQIFDSKILPSNSEIILLKGYGHLDVYTGENSEKDVNSVVLKWLSQQR”, the “soluble on expression in E. coli” value is listed as “soluble”.
Turning to “MGSDKIHHHHHHMKKNGTTNSNGGNLGFEADLFKAADKLRGNMEPSDYKHVALGLIFLKYISDAFEARHQALLAEDPRAAEDRDEYLADNVFWVPKEARWSHLRANARRPEIGLLIDEAMRAIEKENESLKGVLPKDYARPALNKVMLGELIDLISGIALGEEGDRSKDILGRVYEYFLGQFAGAEGKRGGEFYTPRSVVRVLVEMLEPYHGRVYDPCCGSGGMFVQSEKFVQEHGGRIGDIAIYGQESNYTTWRLCKMNLAVRGIDADIRWNNEGSFHKDELRDLKADFILANPPFNISDWGGERLREDVRWSFGVPPVGNANYAWLQHIHHHLAPNGTAGVVLANGSMSSNQSGEGEIRKAMVEADVVDCMVALPGQLFYSTQIPACLWFLARNKNPGKGLRDRRGQVLFIDARKLGVLVDRTRRELTDAEIQKIADTYHAWRGEPDAGEYQDVPGFCKSATLEEIRKHGFVLTPGRYVGAAQQEDDGEPFEEKMARLAAQWREQRAAAAKLDAAIEANLKELGYGG”, the “soluble on expression in E. coli” value is reported as “not soluble”.
Take “MVRKALDGQEVVTASAETLRVEALEVRLGENLVLKEVDLAVEPGEIVALLGPSGSGKTTLLRAVAGLLRPTGGRILLGKEVFFDGKKGVFLPPERRNLGLVFQSYALWPQRTVYENVAYGLRLRKVPEKAVRERVLGLLDRLGLTGLERRYPGALSGGQQQRVSLARALAYDPKLLLLDEPLSNLDAKLRDQARVWLRETLKATGKAALFVTHDQGEAMAIADRIALLNEGRMEQVGTPEELYRNPKTLFVADFLGNPNVVEALVVGLEGSTARLELAGFPLRARAMGALVPGRLAKLVLRPEALRPAGVGEVNALEGALAHSLYLGSHYEHWVRVGDALLRFYSPLPLGEARVRLAVDPEAALAYPG”: the “soluble on expression in E. coli” value is on record as “soluble”.
As to “GPGSMAAGNSISVKVDVPSQVKGQGTLEMSYYIYPITMRLPGFMSDARFNRRYTDFETLRGQLCATYWYCIVPPIPEKESVQDKLGKLPRMVASAKETTASEGDLLEYRRISLRRFLQRLAYHPILGKSDLLQKFTNDNEWRQCIRDPVKPPR”, the “soluble on expression in E. coli” value was “not soluble”.
The entry for “MAHHHHHHMGTYFSKDLQECLREEKRNLNRSIRELEREIFKMENEKKQIEKNIRIHAKKNDITLVRTLAKDLVKIKQNVIKYNKIKSHLLSMKIKLQSVKSSEQLNKSLCDINNIIKRVNKYIQVKNINNSIYEFQKQNNEVSIKEDMIDDLFDTLNYDIDMIQEEDEIVSKVLDELGIQLNSKLEQIPTIKQTENEQLDNVNISKIEDRINNLKKM” is “soluble”; for “MSLKNQKPLAELLRPSTLEEYFGQNKLIGEQTLLRSLLKSQEIPSLILWGPPGCGKTTLAHIIASSIKQKGTGRFVTLSATSASVSDVREVIKQAQNELRLCKRKTVLFIDEIHRFNKSQQDTFLPHVECGTITLIGATTENPSFQVNSALLSRCRVLVLERLSVEAVGSILRRAVDFLDLRILDSEERHSSEICSEAQVCVEQKALDTLAHLCDGDARAALNGLQLAVQACVLQSSSNHNRSSTVVREQHIKEALQRSHILYDKAGEEHYNCISALHKSMRGSDANAALYWLARMLEGGEDPLYVARRLVRFASEDIGLADPVALSQAVAAFQACHLIGMPECEVILAQCAVYLARAPKSVEVYKAYNNVKMCLRNHKGPLPSVPLHLRNAPTKLMKNLGYAKGYKYNPNYSGPVKQEYLPEELRGVDFFTWTPSEGHHHHHH” it is “not soluble”; for “SMRYRQITIPRGKDGFGFTICCDSPVRVQAVDSGGPAERAGLQQLDTVLQLNERPVEHWKCVELAHEIRSCPSEIILLVWRMVPQVKPGPD” it is “soluble”.
The same measure for “MGQGQSVILSFEDGARTVELARESVEAFVQNGQREQPGSMRDAFYNRTSAFVRLESTRGRGRLRGCAGAHGSIHELGNHDQQLGHAIVEAAIEAASEASCGSEVEDAELPNIRVSVCTVSNLVLTDDPIEDIELGVHGVAIDGDGQHGWMYPTLPVENDWSVFEYLDRTCRKANLPDGAWQDEDVMVTLFEGQVFRETGDEDDPVEELTALEHHHHHH”: “not soluble”; for “MKYQQLENLESGWKWKYLVKKHREGELITRYVEASAAQEAVNLLLALENEPVRVNVWIDRHMNPALLNRMKQTIRARRKRHFNAEHQHTRKKSIDLEFMVWQRLAGLAQRRGKTLSETIVQLIEDAEHKEKYATQMTTLKQDLQALLGKK”: “not soluble”; for “MGTLLATRLKNRRKELKMSQRELAEGICKQGQISRLESGEFTPGADFLHALAKKLKVSMDYFFDEQVVEEVNELSEFKKLAQTFITNRNYESLKYIYELENVKAHRLSLADKFYMEWIKSLIDFYFYGQKEEAITRLENMLPQLNVSDLNYLQVSNTLFNFYYDIEDLERFNEIRDKLEHQVNQLNLNTIEELELSIKFNYNVCRYLWLQKNIEEAITKITATIKQCKEYRTTYLLADLYLLMGSVSENFSSKSSVKEYFETAHFLYKLEENMSMALKVEHYFADITE”: “not soluble”.

(Values after the DeepSol protein solubility set.)
